From paper PMC12559329

Molecular target: MutSβ (MSH2-MSH3) (human, UniProt P43246;P20585 1-934;1-1137)
Assay: EMSA; 2 mM ATP, 5 mM Mg2+, pUC19 competitor; 25 mM Tris-acetate pH 7.5, 1 mM DTT, 2 mM ATP, 5 mM MgCl2, 0.1 mg/ml albumin, 0.5 nM DNA, 3 ng/µl pUC19 competitor, 37 °C 30 min; native 6% PAGE
Conditions: protein: recombinant, tags: N-terminal FLAG on MSH2, N-terminal 6xHis on MSH3, copies: 1;1, label: 3'-32P on bottom strand (TdT, dCTP), 5' overhang 1 nt (G) on bottom

B1: (CAG)4 loop DNA (dsDNA)
DNA 1: ACGTCAGAGTCGCTGCGCTCAGTCGTTCAACTGCTCAGCAGCAGCAGTAACTATCGTCTTGAATCCAACCCGGTAAGATACG
DNA 2: GCGTATCTTACCGGGTTGGATTCAAGACGATAGTTAAGCAGTTGAACGACTGAGCGCAGCGACTCTGACGT
modifications: biotin on both strands (position in bold, not recoverable)
binding result (12-nt extrahelical (CAG)4 loop in top strand): binds

B2: (CAG)4 loop DNA with nick 3 nt downstream of loop (dsDNA)
DNA 1: ACGTCAGAGTCGCTGCGCTCAGTCGTTCAACTGCTCAGCAGCAGCAGTAA
DNA 2: TAACTATCGTCTTGAATCCAACCCGGTAAGATACG
DNA 3: GCGTATCTTACCGGGTTGGATTCAAGACGATAGTTAAGCAGTTGAACGACTGAGCGCAGCGACTCTGACGT
modifications: biotin on bottom strand; others unclear (bold lost)
binding result (12-nt loop and nick in top strand, as printed both left and right oligos contain the TAA at the junction (3 nt redundant)): binds
